Experimental data published in publication doi:10.1101/2023.06.19.545549, “DnaK duplicates and regionally evolves for the increase of proteomic complexity in bacteria” (bioRxiv, 2023).

Biological target: the molecule itself
Experiment: SDS-PAGE of the purified protein (monomer and dimer bands); purified MxDnaKs and chimeras on SDS-PAGE without DTT treatment; band compositions confirmed by LC/MS

B1: His6-MxDnaK2, purified recombinant (natural protein, Myxococcus xanthus DK1622, UniProt P95334 1-607, looked up)
chain: MGKVIGIDLGTTNSCVAVMEGGEPVVIPNSEGSRTTPSMVGFTDSGERLVGQIAKRQAITNPENTVFAAKRLIGRKFDSPEGKKAIGVSPFKVASSPNGDAWVEIRGKGYSPPEVSAIVLMKMKQTAEDYLGEQVSEAVITVPAYFNDSQRQATKDAGRIAGLSVLRIINEPTAAALAYGLDKVQDGGTERIAVYDLGGGTFDISILELNAGVFEVKSTNGDTFLGGEDFDQRLIDYLAKRFAESNNGLDLRKDRMALQRLKEAAERAKHELSSAPETEVNLPFITADASGPKHLTETVDRATFEALVTDLIDRTIEPCRIALKDAGIPAQQINQVLLVGGMTRMPRVQQKVKEFFGREPHKGINPDEVVAVGAAIQGGVLKGEVKDVLLLDVTPLSLGVETAGGVFTKIIDKNTTIPCKKSQVFSTAVDNQPLVSVHVLQGEREMAADNKTLARFELVGIPPAPRGVPQIEVSFDIDANGIVHVSAKDLGTGKVQQVRVVSNSGLSEAEIQAMISDAQSHASDDKKKKELAELRNNADGLIYTTEKSLEEYASLLSEKDREEIKADLERLKEVLNTSDAAVLKESFQRLEGSAYRIADAIYTGQAS
notes: MxDnaK2 (MXAN_6671), DnaK of Myxococcus xanthus DK1622; gene amplified from genomic DNA into pET28A; His6-MxDnaK2 printed as 65.3 kDa; source: E. coli BL21 (DE3), purified (Ni-NTA); not shown: His6, N-terminal, kept
  stoichiometry N: 2
